Experimental findings from the supplement of paper PMC9942255 are described below.

Values joined by “and” are separate entries in the source; they are usually repeats but may differ in a detail not shown here. Equal values may be shown once.

The data set concerns Bacillus subtilis DB104 (SP-AmyQ fusion secretion). In words: AmyQ secretion efficiency, weighted average sort bin (1 = best secretion, 10 = worst) (bin number (weighted average, 1-10)); higher = lower secretion efficiency. In a few lines:
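Occupied alginate beads were sorted by large-particle flow cytometry into 10 equally populated bins according to green/red fluorescence ratio. Each bead (~65 nL) held fluorescein-starch and about 0.3 cells of a B. subtilis DB104 library expressing mature AmyQ fused to designed signal peptides from the amyE locus, and beads were grown about 13 h at room temperature and stained with nile red before sorting. Bin amplicons were Illumina-sequenced, and the secretion score is the read-frequency-weighted average bin number, normalised to beads per bin, excluding low-abundance sequences.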

Turning to MKFVKRRIRRKRTILMLSVTSLFALQPSAKAAEH, the AmyQ secretion efficiency turned out to be 3.06.

The sequence MKRLLSTLLIGIMLLTFAPSAFAAED returned an AmyQ secretion efficiency of 2.37. As for MHLIRAAGAVCLAVVLIAGCRFNEDQHQGEGENT, the AmyQ secretion efficiency stood at 6.63. On to MRKYTVIASILLSFLSVLSGGHHEVATSKAFPV, for which the AmyQ secretion efficiency was determined as 3.74.

In the case of MNLRKILLSSALSLGMLVSAAPVLATEE, the AmyQ secretion efficiency is 1.83. The figure for MKKRLIAPMLLSAASLAFMSGSAQAAAY is 3.31.

Regarding MKLRKVLTGSVLSLGLLRKKSPAFATSP, the AmyQ secretion efficiency was 8.19. As to MKQGKFSVKKKRKRMLTLVVAPKEKAEAASS, the AmyQ secretion efficiency was determined as 5.83.

As for MKVLLSALLLLLFAFEPSKSGKKL, the AmyQ secretion efficiency is 6.03. Consider MKQGKFSVFLILLLMLTLVVTIFAALVIAPKEKAEAASS, for which the AmyQ secretion efficiency stood at 3.57.

MLKKKWMVGLLAGCLAAGGFSYNAFADEE showed an AmyQ secretion efficiency of 6.94. To MKKIRRRKRKCLAALFTIGFPAQQADAAEA belongs 7.19. Consider MKKIWIGMLAAAVLLLMVPKVSLAAAD, for which the AmyQ secretion efficiency was 5.09. For the sequence MRSYIKVLTMCFLGLILFVPTCLADNS, the AmyQ secretion efficiency is 2.04.

The sequence MRRKKKRVLTMCFLGLILFVPTALADNS yielded an AmyQ secretion efficiency of 3.09. In turn, MKKLKRKKVILGALGTSYISADSS returned an AmyQ secretion efficiency of 7.53. For the sequence MKRLFMKGSLVLFAVVFVFAVKGAPAKAETH, the AmyQ secretion efficiency is 3.72.

Take MKKKLAAGLTASAIVGTTLVTTISAVTPAEAATI: the AmyQ secretion efficiency was 2.98. Turning to MKKKKMLSMLTVMIASLFIFSSQALAVQY, the AmyQ secretion efficiency turned out to be 3.15. On to MKLWMRKTLVVLFTIVTFGLKKRPAALMADKP, for which the AmyQ secretion efficiency was 6.91. In turn, MFNRLFRVCFLAALIMAFTLPNSVYGQKP displayed an AmyQ secretion efficiency of 2.74. Sequence MKRKKKKASLVLFAVVFVFAVKGAPAKAETH showed an AmyQ secretion efficiency of 2.

As to MRGKSAVLLSLIMLIAGFLIEFSFQM, the AmyQ secretion efficiency was determined as 8.38.

MKKWMITIAMSTYTYYTLFVFISPLKSHKT showed an AmyQ secretion efficiency of 5.78. The sequence MFNRLFRVCFLAALIMAFTLPNSVYPQKP showed an AmyQ secretion efficiency of 7.22. Regarding MRKNRILALFVLSLGLLSFMVTPVSAASK, the AmyQ secretion efficiency is 2.04 and 2.05 and 2.92. The figure for MFMQIITATTAVVLGSTLFAGAASAQSI is 3.83; for MKKLIMMTGLLFGLTSPAFAAEK it is 2.43. The figure for MKSKGSIMACLILFSFTITTFINTGTISAFSN is 4.33. In turn, MLKKKWMVGLLAGCLAAGGFSYNFFATEN gave an AmyQ secretion efficiency of 6.27.

MTGTIITATTAVVLGSTLFAGAASAQSI came in with an AmyQ secretion efficiency of 2.31. Sequence MKRKKLLVSLRVWMVFLMNWVTPDRKTAAAAVY had an AmyQ secretion efficiency of 7.43.

Turning to MFMKHTISLLIIFLLASAVLAKPIEAHTV, the AmyQ secretion efficiency was 2.89. Sequence MKSKGSIMACLILFSFTITEDEEEETISAFSN displayed an AmyQ secretion efficiency of 6.65.

With MGMKKKLSLGVASAALGLALVGGGTWKAFN, the AmyQ secretion efficiency turned out to be 5.21. To MRKKRVITCVMAASLTLGSLLRKRKKRASAKED belongs 6.48; to MLKKKWMVFLLAICLAAFGFSYNAFATEN, 3.29.

Regarding MRKKRVILAAFILVGSTLGAFSFSSDASAKHV, the AmyQ secretion efficiency turned out to be 2.62. To MKKWIYVVLVLSIAGIGGFSMHAASS belongs 5.22. The figure for MRSKKLWISLLFALTLITFTMAFSNMSAQAAGK is 3.27.

Turning to MRKKRVITCVMAASPAGYATAKED, the AmyQ secretion efficiency was 7.65. Sequence MKKLILAGIALFVFISPLKSHKT came in with an AmyQ secretion efficiency of 5.8. To MSGSSFVLIVCIIFTSALFPTFSSVTAAQG belongs 1.04; to MKLKSKLLLSCLALSTVFVATTIANAPTR, 6.08. To MKRIRIPMTLALGAALTIAPLSFASAKKR belongs 3.26. To MKNMSCKLRKKKTLFFSFLTIGPLAHAQNS belongs 6.98. In the case of MFSKWMSGLLLVAVGFSFTQVMVHAGET, the AmyQ secretion efficiency amounted to 6.12. MKSKWMSGLLLVAVGFSFTQVMDHAGET: the AmyQ secretion efficiency amounted to 6.14. The figure for MIKVLMAFIICLSLILSVLAAPPSGAKAESV is 1.52; for MRPVFPLILSAVLFLSCFRASASKR it is 6.81; for MRKTRRKKKRGLMMFGTITAASASPD it is 5.82. To MKKAAAVLLSLGLVFDESYGAGHVAEAKTK belongs 2.18; to MMGRKVLTGSVLSLGLLVSASPAFATSP, 2.07; to MLKKKWMVGLLAGCLAAGSAGFSYNAFATEN, 4.95. To MKKRLIAPMLLSAASLAFFAMSGSAQTAAY belongs 7.42; to MKLRKVLTGSVLSLGLLVSASPNFATSP, 5.36; to MKKAAAVLLSLGLVFGFSYGAGHVVEAKTK, 2.99. Regarding MKKAFILSAAAAVGLFTFGGVQQMSAKEL, the AmyQ secretion efficiency amounted to 2.71. In the case of MSRIRIPMTLALGAALTIAPLSFASAEEN, the AmyQ secretion efficiency worked out at 3.2. To MRKKLKWLSFLLGFIILLFLFKYQSSNNDS belongs 6.36; to MKKTIMSFVAVAALSTTAFGAHASWKEI, 6.56.

In turn, MKKAAAVLLSLGLVFGFSYGAGHVAESKTK returned an AmyQ secretion efficiency of 4.52. To MKRKLKKSLAISALSLGLLVSAPTASFAAES belongs 3.49. As for MKKIWIGMLAAAVLLLMVPKVSLADAA, the AmyQ secretion efficiency is 3.23 and 2.34 and 3.08.

Turning to MSKGIIRFLLVSFVLFFALSTGITGVQAAPA, the AmyQ secretion efficiency came out at 2.19.

MMSSISIFITCLLITLLTMGGMIASPASAAGT: the AmyQ secretion efficiency turned out to be 2.44.

The sequence MLCVMMLLFSAIASFPVSAQDKDQ yielded an AmyQ secretion efficiency of 6.19. In turn, MRKKKRKLLLATSALTFSLSLVLPLDGHAKAQEV yielded an AmyQ secretion efficiency of 2.13. The figure for MGTLTTLTSLLLAGLCTAAQMVFVTHASAEES is 3.24; for MRGKSIAVLLSLIMLIAGFLISFSFQM it is 5.87.

MKRSYVSLRVWMVFLMNWVTPDRKTAAAAVY registered an AmyQ secretion efficiency of 6.51.

MIAYFGKCLLLVTIMFLGVLFGMFATQQANHG yielded an AmyQ secretion efficiency of 6.56. To MKKSQYFIVFICFFVLFSRRKHKRRAAAADS belongs 7.81.
